B3: PikAIV KSdd residues 1-37 (the PikAIV part of P3P4dock) (domain or fragment, UniProt Q9ZGI2 1-37, looked up)
chain: MTSSNEQLVDALRASLKENEELRKESRRRADRRQEPM

Assays:
crystal structure = biological target: the molecule itself; assay: crystal structure
PikAIV full module = PikAIV full module (post-translational modification of its ACP domain (grown in BAP1 E. coli cells)); assay: fluorescence polarisation
[1] = biological target: B3; assay: crystal structure
[2] = biological target: T1, PikAIII ACPdd (N-terminally His-tagged discrete C-terminal docking domain of PikAIII) (UniProt Q9ZGI3 1479-1562); assay: SPR
T1 sequence (looked up): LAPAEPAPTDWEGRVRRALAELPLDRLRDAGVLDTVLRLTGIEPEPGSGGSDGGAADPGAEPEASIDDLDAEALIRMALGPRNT

B1: P3P4dock (amino acids 1534-1562 of PikAIII ACPdd fused to amino acids 1-37 of the KSdd of PikAIV) (other)
chain: SNADPGAEPEASIDDLDAEALIRMALGPRNTMTSSNEQLVDALRASLKENEELRKESRRRADRRQEPM
binding result (crystal structure): binds

B2: PikAIII ACPdd-FL (PikAIII ACPdd with an added C-terminal cysteine labelled with BODIPY-FL) (domain or fragment)
chain: LAPAEPAPTDWEGRVRRALAELPLDRLRDAGVLDTVLRLTGIEPEPGSGGSDGGAADPGAEPEASIDDLDAEALIRMALGPRNTC
modifications: BODIPY-FL (iodoacetamide) on the added C-terminal cysteine
Kd (PikAIV full module): 5 ± 1 µM

ADPGAEPEASIDDLDAEALIRMALGPRNT (domain or fragment, UniProt Q9ZGI3 1534-1562, looked up) [PikAIII ACPdd residues 1534-1562 (the PikAIII part of P3P4dock)]
binding result [1]: binds

MTSSNEQLVDALRASLKENEELRKESRRRADRRQEPM (domain or fragment, UniProt Q9ZGI2 1-37, looked up) [PikAIV KSdd (discrete N-terminal docking domain of PikAIV, tagless)]
Kd [2]: 73 ± 43 µM | koff [2]: 0.21 ± 0.03 s⁻¹ | kon [2]: 3000 ± 1800 M⁻¹ s⁻¹

B3
binding result (crystal structure): binds

Reference: paper PMC2853223 (ACS chemical biology, 2009)
